Values of other authors as cited in PMC2375062.

Molecular target: uPA (Homo sapiens) (UniProt P00749)

Kd: 50 nM
Substance: glu-plasminogen (from UniProt P00747)
